# Publication PMC7769916 (Cellular and molecular life sciences : CMLS, 2020)
# How the values were obtained:
# [1] = biological target: Plexin-B1 ICD R1900E.R1904E (human) (UniProt O43157)
# [2] = biological target: Plexin-B1 ICD E1530R.E1533R (human) (UniProt O43157)
# [3] = biological target: Plexin-B1 ICD R1900E.R1904E (human, UniProt O43157 1511-2135, R1900E | R1904E); test: MST
# [4] = biological target: Plexin-B1 ICD E1530R.E1533R (human, UniProt O43157 1511-2135, E1530R | E1533R); test: MST
# [5] = biological target: Plexin-B1 ICD FL [res. 1511-2135] (human, UniProt O43157 1511-2135); test: MST
# Chain of Plexin-B1 ICD FL [res. 1511-2135] (O43157 1511-2135): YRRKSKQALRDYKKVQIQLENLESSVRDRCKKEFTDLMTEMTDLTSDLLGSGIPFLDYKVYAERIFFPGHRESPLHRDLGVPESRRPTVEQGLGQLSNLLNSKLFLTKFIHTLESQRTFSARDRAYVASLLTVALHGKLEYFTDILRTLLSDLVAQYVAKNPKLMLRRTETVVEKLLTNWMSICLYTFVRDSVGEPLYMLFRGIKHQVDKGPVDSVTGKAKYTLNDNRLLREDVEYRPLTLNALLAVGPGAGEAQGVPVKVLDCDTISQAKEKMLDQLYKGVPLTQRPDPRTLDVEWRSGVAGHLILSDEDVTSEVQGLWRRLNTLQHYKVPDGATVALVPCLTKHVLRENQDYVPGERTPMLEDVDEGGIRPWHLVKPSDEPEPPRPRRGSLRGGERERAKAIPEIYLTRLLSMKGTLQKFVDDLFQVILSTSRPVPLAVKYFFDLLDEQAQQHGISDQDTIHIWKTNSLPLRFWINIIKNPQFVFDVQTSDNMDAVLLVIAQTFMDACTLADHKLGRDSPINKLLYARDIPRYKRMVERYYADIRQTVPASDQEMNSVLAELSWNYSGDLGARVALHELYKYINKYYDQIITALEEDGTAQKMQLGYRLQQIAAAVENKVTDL
# Chain of Human Rap1b wild type [res. 1 to 184] (P61224 whole entry): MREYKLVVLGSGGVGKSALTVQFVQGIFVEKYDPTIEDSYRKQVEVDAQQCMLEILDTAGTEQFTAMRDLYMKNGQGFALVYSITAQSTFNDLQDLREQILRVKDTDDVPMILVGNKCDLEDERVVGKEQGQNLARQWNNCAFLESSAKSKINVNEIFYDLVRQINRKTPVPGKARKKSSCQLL
# Chain of Plexin-B1 ICD E1530R.E1533R (human) (O43157 1511-2135 E1530R/E1533R): as the sequence (O43157 1511-2135) above, with E20R, E23R counted along it
# Chain of Plexin-B1 ICD E1530R.E1533R (O43157 1511-2135 E1530R/E1533R): as the sequence (O43157 1511-2135) above, with E20R, E23R counted along it
# Chain of Plexin-B1 ICD R1900E.R1904E (O43157 1511-2135 R1900E/R1904E): as the sequence (O43157 1511-2135) above, with R390E, R394E counted along it
# Chain of Plexin-B1 ICD R1900E.R1904E (human) (O43157 1511-2135 R1900E/R1904E): as the sequence (O43157 1511-2135) above, with R390E, R394E counted along it
loss of GAP activity towards Rap1b against wild type Plexin-B1 ICR [1] [%],loss of GAP activity towards Rap1b against wild type Plexin-B1 ICR [2] [%],Kd [3] [µM],Kd [4] [µM],binding result [5],Molecule
> 50,> 50,–,–,–,Human Rap1b wild type [res. 1 to 184] (from UniProt P61224 1-184) (enzyme)
–,–,> 100,> 100,binds,"Rap1b G12V (constitutive active mutant) [res. 1 to 184] (enzyme, human, UniProt P61224 1-184, looked up) MREYKLVVLGSVGVGKSALTVQFVQGIFVEKYDPTIEDSYRKQVEVDAQQCMLEILDTAGTEQFTAMRDLYMKNGQGFALVYSITAQSTFNDLQDLREQILRVKDTDDVPMILVGNKCDLEDERVVGKEQGQNLARQWNNCAFLESSAKSKINVNEIFYDLVRQINRKTPVPGKARKKSSCQLL"
